# Measurements as given in article PMC4938799, “LD Motif Recognition by Talin: Structure of the Talin-DLC1 Complex” (Structure(London, England:1993), 2016).
# Target: T1, talin R8 domain
# T1 construct: talin rod domain R8 (four-helix bundle), isolated domain used 15N-labelled for NMR; Construct limits, host and species are probably in the Supplemental Experimental Procedures; also called [15N]talin R8 domain
# Test: NMR titration; KD fitted from 1H,15N-HSQC chemical-shift changes; 0.1 mM 15N talin R8, peptide/protein ratios 0.1 to 8; 298 K, 20 mM sodium phosphate pH 6.5, 50 mM NaCl
# Conditions: both partners purified
binder,measurement,value
MDDLDALLADLESTTS [paxillin LD1 peptide],Kd,168 µM
ENEDIFPELDDILYHVKGMQRIVNQWSEK (Paper numbering is the 1091-residue isoform; +437 gives canonical numbering.) [DLC1(461–489) peptide],Kd,48 µM
